This is an account of results in publication PMC5761895.

This assay has as its target Fluorescently labelled replication protein A (Flu-RPA) (human) (UniProt P27694).

Fluorescently labelled replication protein A (Flu-RPA) (human), sequence (P27694 whole entry, chain 1 of 3): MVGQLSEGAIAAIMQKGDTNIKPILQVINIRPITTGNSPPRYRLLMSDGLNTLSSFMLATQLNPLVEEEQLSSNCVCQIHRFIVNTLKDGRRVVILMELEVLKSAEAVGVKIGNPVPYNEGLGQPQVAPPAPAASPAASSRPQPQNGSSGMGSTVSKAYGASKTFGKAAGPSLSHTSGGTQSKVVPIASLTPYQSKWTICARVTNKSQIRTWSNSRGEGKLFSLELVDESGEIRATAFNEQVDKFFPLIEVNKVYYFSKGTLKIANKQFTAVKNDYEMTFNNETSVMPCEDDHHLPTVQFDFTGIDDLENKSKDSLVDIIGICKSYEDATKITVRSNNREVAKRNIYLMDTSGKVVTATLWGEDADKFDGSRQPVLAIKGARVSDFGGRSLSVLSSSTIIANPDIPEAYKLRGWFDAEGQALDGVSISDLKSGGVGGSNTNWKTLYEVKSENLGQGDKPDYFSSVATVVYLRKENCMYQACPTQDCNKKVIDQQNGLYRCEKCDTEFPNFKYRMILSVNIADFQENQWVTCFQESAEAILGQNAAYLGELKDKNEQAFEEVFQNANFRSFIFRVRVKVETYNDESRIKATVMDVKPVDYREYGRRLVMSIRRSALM
Fluorescently labelled replication protein A (Flu-RPA) (human), sequence (P15927 whole entry, chain 2 of 3, further chain): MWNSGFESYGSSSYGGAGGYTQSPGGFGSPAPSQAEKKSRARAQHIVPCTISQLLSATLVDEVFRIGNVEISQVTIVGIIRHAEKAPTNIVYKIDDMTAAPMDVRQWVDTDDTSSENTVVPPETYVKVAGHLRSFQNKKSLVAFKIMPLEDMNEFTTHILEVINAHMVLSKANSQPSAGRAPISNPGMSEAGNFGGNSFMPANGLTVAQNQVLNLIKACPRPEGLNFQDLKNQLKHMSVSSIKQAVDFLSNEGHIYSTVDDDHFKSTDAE
Fluorescently labelled replication protein A (Flu-RPA) (human), sequence (P35244 whole entry, chain 3 of 3, further chain): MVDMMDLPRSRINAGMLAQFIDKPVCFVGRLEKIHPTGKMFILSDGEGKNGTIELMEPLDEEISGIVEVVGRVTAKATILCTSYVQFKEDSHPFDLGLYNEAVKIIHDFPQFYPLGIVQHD
Recombinant human xeroderma pigmentosum group A protein (hXPA) bearing the N-terminal polyhistidine fragment, sequence (P23025 whole entry, the tested form may be a part): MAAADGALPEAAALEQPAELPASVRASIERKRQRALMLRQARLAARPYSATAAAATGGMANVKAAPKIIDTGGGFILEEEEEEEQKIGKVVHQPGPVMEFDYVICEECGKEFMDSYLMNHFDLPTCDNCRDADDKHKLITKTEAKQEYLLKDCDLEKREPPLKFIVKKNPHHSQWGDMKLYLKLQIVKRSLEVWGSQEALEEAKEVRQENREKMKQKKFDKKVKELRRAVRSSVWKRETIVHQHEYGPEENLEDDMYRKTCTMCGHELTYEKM

Consider “Recombinant human xeroderma pigmentosum group A protein (hXPA) bearing the N-terminal polyhistidine fragment (from UniProt P23025 1-273) (natural protein)”, for which the EC50 came out at 18 nM.
